Measurements from the supplement of paper PMC9170038.

Tested on: MS2 coat protein
Test: apparent KD of MS2 coat protein; designed switch direction (-1 OFF switch, 1 ON switch): -1; higher = weaker reporter binding
Method in brief: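 Stalled E. coli RNA polymerase transcribed designed RNA switches on Illumina chips, which were then titrated with SNAP-549-labelled MS2 coat protein, doubling from 0.7 or 1.5 nM to 3 µM. Steps lasted from 0.8–1.5 h at the lowest concentration to 10–20 min at the highest. The apparent KD is each design's median over clusters of curve-fitted normalised fluorescence.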

[1] = Eterna round: R95, input ligand: microRNA oligo, concentration not stated
[2] = Eterna round: R95, input ligand: FMN 200 uM
[3] = Eterna round: R95, input ligand: none
[4] = input ligand: microRNA oligo, concentration not stated

| Sequence | apparent KD of MS2 coat protein (input ligand: FMN 200 uM) [nM] | apparent KD of MS2 coat protein (input ligand: none) [nM] | apparent KD of MS2 coat protein [1] [nM] | apparent KD of MS2 coat protein [2] [nM] | apparent KD of MS2 coat protein [3] [nM] | apparent KD of MS2 coat protein [4] [nM] |
| --- | --- | --- | --- | --- | --- | --- |
| AGGUUGGGCGCAUCUUGCCACAUGAGGAUCACCCAUGUUGUACCAUUAGAAGAGAACAAGCUCUUUGCUCGUCUUAU [Sensor 1 S2] (Eterna round: R97, puzzle: Sensor, turn-off variant 1) | 32 | 39.5 |  |  |  |  |
| AGUAACAGAGGAUAUACUAUUUUAUGUGUUUGUUAUUUUGAACAUGAGGAUCACCCAUGUAGAAGGCUGAAUAA [JMF 93] (puzzle: Exclusion 2) |  |  | 24 |  |  |  |
| AGUAACCGGGCUUUUUGCUACAUGAGGAUCACCCAUGUUUAAGCGGAGGGAUUGAUCGUCCUAAAUUCUUUAGUCGG [Eternabot (L2) Solution 8] (Eterna round: R97, puzzle: Sensor, turn-off variant 1) | 16.8 | 17.4 |  |  |  |  |
| AGUAACCGUCACGAAAGUGAUGGUUACACAAGCAUAUGUACAUGAGGAUCACCCAUGUCCUCAACUGCUCGUCUUAU [Sensor 3 - 55] (puzzle: Sensor v3, turn-off variant 2) |  |  | 385 | 296 | 424 |  |
| AGUAACUAUCACGAAAGUGAUAGUUACAAAACAAGUGGAACAUGAGGAUCACCCAUGUCCUCAUUUGCUCGUCUUAU [Sensor 3 - 4] (puzzle: Sensor v3, turn-off variant 2) |  |  | 238 | 107 | 166 |  |
| AGUAACUAUCACGAAAGUGAUAGUUACAAAACAGGUGAAACAUGAGGAUCACCCAUGUCCUCAUUUGCUCGUCUUAU [Sensor 3 - 3] (puzzle: Sensor v3, turn-off variant 2) |  |  | 384 | 793 | 857 |  |
| AGUAACUAUCACGAAAGUGAUAGUUACACAAGCAGUGAAACAUGAGGAUCACCCAUGUCCUCAAUUGCUCGUCUUAU [Sensor 3 - 31] (puzzle: Sensor v3, turn-off variant 2) |  |  | 194 | 47.8 | 49.6 |  |
| AGUAACUCAAGAGGAUAUCACAUGAGGAUCACCCAUGUAUAGCGCGCUGCGCUAGUCCUCGUAUUUGAGAAGGUUUGAUAAAUG [Riausve] (Eterna round: R96, puzzle: Exclusion NG 2) | 13 | 15.7 |  |  |  | 10.8 |
| AGUAAGCUAGGAUAUGCUUUGGGAAAGCAUUCCUUCGAUAAACUUGAGGAUCACCCAAGUAGAAGGAGCUAAAU [jl-ex2.4.49 ViennaUCT mod] (Eterna round: R97, puzzle: Exclusion 2) | 17.5 | 15.4 |  |  |  |  |
| AGUAAGCUAGGAUAUGCUUUGGGAAAGCAUUCCUUCGAUAAACUUGAGGAUCACCCAAGUAGAAGGAGCUUACA [salish99_ex2_r4_004] (Eterna round: R97, puzzle: Exclusion 2) | 20.2 | 13.8 |  |  |  |  |
| AGUACGAUGCGUGCUGACAUGCGUCGUGCAGCAGGUGAUACAUGAGGAUCACCCAUGUCCUCAUUUGCUCGUCUUGA [Mat - Sensor v3 - Turn-off var 2 - D19] (puzzle: Sensor v3, turn-off variant 2) |  |  | 499 | 28.5 | 28.4 |  |
| AGUACUAACACGAAAGUGUUAGUACAAUAAGCUUGUAUUACAUGAGGAUCACCCAUGUCCUCAUAAGCUCGUCUUAU [Mat - Sensor v3 - Turn-off var 2 - D46] (puzzle: Sensor v3, turn-off variant 2) |  |  | 14 | 316 | 881 |  |
| AGUACUAACACGAAAGUGUUAGUACAAUAAGCUUGUGAAACAUGAGGAUCACCCAUGUCCUCAUAAGCUCGUCUUAG [salish99_TOv2_r3_003] (puzzle: Sensor v3, turn-off variant 2) |  |  | 280 | 16.4 | 15.4 |  |
| AGUACUAACACGAAAGUGUUAGUACAAUAAGCUUGUGAAACAUGAGGAUCACCCAUGUCCUCAUGAGCUCGUCUUAU [salish99_TOv2_r3_051] (puzzle: Sensor v3, turn-off variant 2) |  |  | 5.95 | 77.8 | 67.9 |  |
| AGUACUAACACGAAAGUGUUAGUACUGUAGGUUUGUGUUACAUGAGGAUCACCCAUGUCCUCAUAAGCUCGUCUUGU [Mat - Sensor v3 - Turn-off var 2 - D96] (puzzle: Sensor v3, turn-off variant 2) |  |  | 152 | 380 | 368 |  |
| AGUACUAACACGAAAGUGUUAGUUCAAUAAGCUUGUGAAACAUGAGGAUCACCCAUGUCCUCAUAAGCUCGUCUUAU [salish99_TOv2_r3_040] (Eterna round: R96, puzzle: Sensor v3, turn-off variant 2) | 15.2 | 17.5 |  |  |  | 461 |
| AGUACUAACACGAAAGUGUUAGUUCAAUAAGCUUGUGAAACAUGAGGAUCACCCAUGUCCUCAUAAGCUCGUCUUAU [salish99_TOv2_r3_040] (puzzle: Sensor v3, turn-off variant 2) |  |  | 856 | 15.8 | 15 |  |
| AGUACUAACACGAACGUGUUAGUACAAUAAGCUUGUGAAACAUGAGGAUCACCCAUGUCCUCAUAAGCUCGUCUUAU [salish99_TOv2_r3_034] (puzzle: Sensor v3, turn-off variant 2) |  |  | 775 | 17.9 | 16.2 |  |
| AGUACUAACACGACAGUGUUAGUACAAUAAGCUUGUGAAACAUGAGGAUCACCCAUGUCCUCAUAAGCUCGUCUUAU [salish99_TOv2_r3_031] (Eterna round: R96, puzzle: Sensor v3, turn-off variant 2) | 15.4 | 17.2 |  |  |  | 431 |
| AGUACUAACACGACAGUGUUAGUACAAUAAGCUUGUGAAACAUGAGGAUCACCCAUGUCCUCAUAAGCUCGUCUUAU [salish99_TOv2_r3_031] (puzzle: Sensor v3, turn-off variant 2) |  |  | 867 | 18.8 | 15.2 |  |
| AGUACUAACACGAUAGUGUUAGUACAAUAAGCUUGUGAAACAUGAGGAUCACCCAUGUCCUCAUAAGCUCGUCUUAU [salish99_TOv2_r3_030] (Eterna round: R96, puzzle: Sensor v3, turn-off variant 2) | 15.1 | 17.3 |  |  |  | 507 |
| AGUACUAACACGAUAGUGUUAGUACAAUAAGCUUGUGAAACAUGAGGAUCACCCAUGUCCUCAUAAGCUCGUCUUAU [salish99_TOv2_r3_030] (puzzle: Sensor v3, turn-off variant 2) |  |  | 993 | 14.5 | 14.6 |  |
| AGUACUAACACGAUAGUGUUAGUACUAUAAGCUUGUGUUACAUGAGGAUCACCCAUGUCCUCAUAAGCUCGUCUUAG [Mat - Sensor v3 - Turn-off var 2 - D66] (puzzle: Sensor v3, turn-off variant 2) |  |  | 83.2 | 39.8 | 41.6 |  |
| AGUACUAACACGUAAGUGUUAGUACAAUAAGCUUGUGAAACAUGAGGAUCACCCAUGUCCUCAUAAGCUCGUCUUAU [salish99_TOv2_r3_025] (puzzle: Sensor v3, turn-off variant 2) |  |  | 659 | 17.9 | 15.4 |  |
| AGUACUAUCACGAAAGUGAUAGUACAAAUAAGCUUUAGAACAUGAGGAUCACCCAUGUCCUCUUAAGCUCGUCUUAU [Mat - Sensor v2 -ver2- JL mod - D56] (Eterna round: R96, puzzle: Sensor v2, turn-off variant 2) | 14.8 | 17.1 |  |  |  | 143 |
| AGUACUAUCACGAAAGUGAUAGUACAAAUAGCAAGUGAAACAUGAGGAUCACCCAUGUCCUCAUUUGCUCGUCUUAU [Mat - Sensor v2 -ver2- JL mod - D65] (Eterna round: R96, puzzle: Sensor v2, turn-off variant 2) | 12.1 | 14.3 |  |  |  | 409 |
| AGUACUAUGCGAGCUGACUUGCGUAGUGCAGCAAGUGAAACAUGAGGAUCACCCAUGUCCUCAUUUGCUCGUCUUAU [Mat - Sensor v3 - Turn-off var 2 - D1] (Eterna round: R96, puzzle: Sensor v3, turn-off variant 2) | 31.1 | 34.1 |  |  |  | 662 |
